Results on 2 molecules are retold here after paper PMC6882858, “Seryl tRNA synthetase cooperates with POT1 to regulate telomere length and cellular senescence” (Signal Transduction and Targeted Therapy, 2019).

The target of experiment [1] is T1, GST-fused full length SerRS (human, UniProt P49591 1-514).
T1 construct: also called GST-SerRS FL; pGEX6P-1-SerRS
In words: pull-down; GST-fusion proteins bound to beads incubated with 0.5 uM purified recombinant His6-tagged protein in 500 ul GST pulldown buffer (150 mM NaCl, 20 mM HEPES pH 7.9, 0.5 mM EDTA, 0.1% Triton X-100, 10% glycerol, 1 mM DTT) overnight at 4 °C; washed 5 times; western blot with anti-His or anti-GST. The note with it: both partners purified.

Experiment [2] concerns the target T2, purified His6-tagged SerRS (human, UniProt P49591 1-514).
T2 construct: also called recombinant SerRS; PET-20b-SerRS
The experiment is described as above. The note with it: both partners purified.

T1 sequence (P49591 whole entry, the tested form may be a part): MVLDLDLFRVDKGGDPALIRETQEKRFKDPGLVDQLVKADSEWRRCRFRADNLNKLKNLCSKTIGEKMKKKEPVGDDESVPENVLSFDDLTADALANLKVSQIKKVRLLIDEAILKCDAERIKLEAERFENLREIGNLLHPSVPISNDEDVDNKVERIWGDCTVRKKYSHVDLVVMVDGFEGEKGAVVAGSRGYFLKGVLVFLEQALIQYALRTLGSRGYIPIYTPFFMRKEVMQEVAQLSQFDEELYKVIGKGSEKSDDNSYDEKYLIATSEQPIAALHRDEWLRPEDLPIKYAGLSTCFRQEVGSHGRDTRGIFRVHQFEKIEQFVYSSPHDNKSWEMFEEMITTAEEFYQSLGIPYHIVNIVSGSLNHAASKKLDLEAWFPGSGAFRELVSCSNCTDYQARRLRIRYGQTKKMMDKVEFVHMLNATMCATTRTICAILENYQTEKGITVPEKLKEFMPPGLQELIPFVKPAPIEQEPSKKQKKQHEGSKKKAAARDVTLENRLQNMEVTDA
T2 sequence (P49591 whole entry): as the sequence (P49591 whole entry, the tested form may be a part) above

B1: recombinant POT1 with a His6 tag at its C-terminal end (natural protein, human, UniProt Q9NUX5 1-634, looked up)
chain: MSLVPATNYIYTPLNQLKGGTIVNVYGVVKFFKPPYLSKGTDYCSVVTIVDQTNVKLTCLLFSGNYEALPIIYKNGDIVRFHRLKIQVYKKETQGITSSGFASLTFEGTLGAPIIPRTSSKYFNFTTEDHKMVEALRVWASTHMSPSWTLLKLCDVQPMQYFDLTCQLLGKAEVDGASFLLKVWDGTRTPFPSWRVLIQDLVLEGDLSHIHRLQNLTIDILVYDNHVHVARSLKVGSFLRIYSLHTKLQSMNSENQTMLSLEFHLHGGTSYGRGIRVLPESNSDVDQLKKDLESANLTANQHSDVICQSEPDDSFPSSGSVSLYEVERCQQLSATILTDHQYLERTPLCAILKQKAPQQYRIRAKLRSYKPRRLFQSVKLHCPKCHLLQEVPHEGDLDIIFQDGATKTPDVKLQNTSLYDSKIWTTKNQKGRKVAVHFVKNNGILPLSNECLLLIEGGTLSEICKLSNKFNSVIPVRSGHEDLELLDLSAPFLIQGTIHHYGCKQCSSLRSIQNLNSLVDKTSWIPSSVAEALGIVPLQYVFVMTFTLDDGTGVLEAYLMDSDKFFQIPASEVLMDDDLQKSVDMIMDMFCPPGIKIDAYPWLECFIKSYNVTNGTDNQICYQIFDTTVAEDVI
notes: also called His6-tagged POT1; pET-20b-POT1; not shown: His6, C-terminal, kept
On to B1, for which the binding result in experiment [1] is recorded as “binds”.

B2: GST-fused full-length POT1 (natural protein, human, UniProt Q9NUX5 1-634, looked up)
chain: MSLVPATNYIYTPLNQLKGGTIVNVYGVVKFFKPPYLSKGTDYCSVVTIVDQTNVKLTCLLFSGNYEALPIIYKNGDIVRFHRLKIQVYKKETQGITSSGFASLTFEGTLGAPIIPRTSSKYFNFTTEDHKMVEALRVWASTHMSPSWTLLKLCDVQPMQYFDLTCQLLGKAEVDGASFLLKVWDGTRTPFPSWRVLIQDLVLEGDLSHIHRLQNLTIDILVYDNHVHVARSLKVGSFLRIYSLHTKLQSMNSENQTMLSLEFHLHGGTSYGRGIRVLPESNSDVDQLKKDLESANLTANQHSDVICQSEPDDSFPSSGSVSLYEVERCQQLSATILTDHQYLERTPLCAILKQKAPQQYRIRAKLRSYKPRRLFQSVKLHCPKCHLLQEVPHEGDLDIIFQDGATKTPDVKLQNTSLYDSKIWTTKNQKGRKVAVHFVKNNGILPLSNECLLLIEGGTLSEICKLSNKFNSVIPVRSGHEDLELLDLSAPFLIQGTIHHYGCKQCSSLRSIQNLNSLVDKTSWIPSSVAEALGIVPLQYVFVMTFTLDDGTGVLEAYLMDSDKFFQIPASEVLMDDDLQKSVDMIMDMFCPPGIKIDAYPWLECFIKSYNVTNGTDNQICYQIFDTTVAEDVI
notes: Held on beads in the GST pull-down; also called GST-POT1 FL; pGEX6P-1-POT1; not shown: GST, N-terminal, kept
As to B2, in experiment [2], the binding result is “binds”.
